The record followed here is US20110097323A1.

Broadly, the koff is a measure of how fast the partners let go of each other. Low values mean a long-lived complex, high ones a short-lived complex. By kon is commonly meant a measure of how fast the partners come together.

One experiment concerns the target CD16A F158 (human) (UniProt P08637). As to the kind of experiment: Table 3; relative to wild-type Fc; method not stated.
The target in another experiment is CD32B (FcγRII-B) (UniProt P31994). The experiment is described as above.
Chain of CD32B (FcγRII-B) (P31994 43-217 limits assumed): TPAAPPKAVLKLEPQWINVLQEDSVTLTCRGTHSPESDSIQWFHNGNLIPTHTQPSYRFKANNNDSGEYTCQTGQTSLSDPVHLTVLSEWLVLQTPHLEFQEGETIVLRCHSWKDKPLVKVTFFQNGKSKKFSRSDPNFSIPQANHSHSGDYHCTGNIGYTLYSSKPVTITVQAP
The target of another experiment is CD16A V158 (human) (UniProt P08637). The description is as above.
Chain of CD16A V158 (human) (P08637 17-208 F176V limits assumed): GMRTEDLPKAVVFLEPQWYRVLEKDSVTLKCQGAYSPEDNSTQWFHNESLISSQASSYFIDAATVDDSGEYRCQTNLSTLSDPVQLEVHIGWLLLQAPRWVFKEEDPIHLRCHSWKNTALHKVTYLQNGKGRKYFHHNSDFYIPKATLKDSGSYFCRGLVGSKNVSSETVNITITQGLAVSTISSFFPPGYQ
A further experiment concerns the target HER-2 (UniProt P04626). The experiment in a line: SPR (BIAcore 1000), HER-2 amine-coupled to chip, antibody injected at 6.25-200 nM. For orientation: Surface plasmon resonance follows binding to a sensor surface in real time, without labels.

Chain of CD16A F158 (human) (P08637 17-208 limits assumed): as the sequence (P08637 17-208 F176V limits assumed) above, with V160F counted along it

On to “Fc variant F243I R292P Y300L V305I P396L (from UniProt P01857 99-330)”, for which the binding relative to wild-type Fc (fold) in the experiment with CD16A F158 (human) is 3.12; with CD32B (FcγRII-B), 1.05.

As to “Fc variant V284M R292P K370N (from UniProt P01857 99-330)”, the values for the binding relative to wild-type Fc (fold) in the experiment with CD16A F158 (human), with CD16A V158 (human) and with CD32B (FcγRII-B) were 1.37, 1.14 and 0.37, respectively.

In the experiment with HER-2, ch4D5 (antibody) returned a koff of 6.3e-06 s⁻¹ and a kon of 110000 M⁻¹ s⁻¹.

“Fc variant F243L R292P P300L (from UniProt P0DOX5 228-449)”: the binding relative to wild-type Fc (fold) is 2.3 in the experiment with CD16A F158 (human), 6.69 with CD16A V158 (human) and 0.32 with CD32B (FcγRII-B).
